Assays:
IaaLPsf-3 = test system: T1, IaaLPsf-3; test: coupled continuous spectrophotometric assay of AMP formation (myokinase/pyruvate kinase/lactate dehydrogenase, NADH at […] nm); format: biochemical, Pseudomonas savastanoi; conditions: 1 mM ATP, 3 mM MgCl2, 100 mM KCl, 50 mM Tris-HCl pH 8.0, 25 °C
T1 construct: wild-type full-length ORF in pET28a, His6-tagged (C-terminal in methods, N-terminal in results), tag not cut, E. coli BL21

O=C(O)Cc1c[nH]c2ccccc12 = test: purified protein; conditions: 5 mM lysine fixed, IAA 0.05-10 mM, 1 mM ATP, 3 mM MgCl2, 100 mM KCl, 50 mM Tris-HCl pH 8.0, 25 °C

O=C(O)Cc1c[nH]c2ccccc12 [IAA]
Km (IaaLPsf-3; 5 mM lysine fixed, IAA 0.05-10 mM): 836 ± 142 µM

NCCCC[C@H](N)C(=O)O [Lys]
Km (IaaLPsf-3; 1 mM IAA fixed, lysine 0.01-10 mM): 320 ± 45 µM

IaaLPsn-1 (Pseudomonas savastanoi pv. nerii)
Km (O=C(O)Cc1c[nH]c2ccccc12): 617 ± 158 µM
Vmax (O=C(O)Cc1c[nH]c2ccccc12): 0.0106 µmol/min/mg
Vmax/Km (O=C(O)Cc1c[nH]c2ccccc12): 17.2 µL/min/mg

From PMC10280071, “Allelic variation in the indoleacetic acid-lysine synthase gene of the bacterial pathogen Pseudomonas savastanoi and its role in auxin production” (Frontiers in Plant Science, 2023)
